Experimental data: patent publication US20250325672A1

Columns and labels:
[1] = molecular target: Biotinylated 2019-nCoV (COVID-19) S1 protein (16-685), His, Avitag (SARS-CoV-2), P0DTC2; experiment: SPR, Biacore T200, geomean
[2] = molecular target: SARS-CoV-2 protein used in the SPR assay of Example 2 (not named); experiment: SPR

| Binder | Kd [1] [nM] | pKD [2] |
| --- | --- | --- |
| CIPLDWTCMIAC (modifications not checked) [BCY18707] | 2440 | – |
| CVNKHNPVCRFYC (modifications not checked) [BCY16911] | – | 8 |
